In test [1] the target is rat µ opioid receptor (HA-µOR), stably expressed in HEK293 cells (rat) (UniProt P33535). As to the kind of experiment: radioligand binding; competition with 5 nM [3H]-naloxone as tracer; 20 µg total membranes of HEK293-µOR cells in DMEM, 37 °C, 1 h, filtration over GF/C filters; Ki.
Test [2] shares this target.

Sequence of UniProt P33535 (P33535 whole entry): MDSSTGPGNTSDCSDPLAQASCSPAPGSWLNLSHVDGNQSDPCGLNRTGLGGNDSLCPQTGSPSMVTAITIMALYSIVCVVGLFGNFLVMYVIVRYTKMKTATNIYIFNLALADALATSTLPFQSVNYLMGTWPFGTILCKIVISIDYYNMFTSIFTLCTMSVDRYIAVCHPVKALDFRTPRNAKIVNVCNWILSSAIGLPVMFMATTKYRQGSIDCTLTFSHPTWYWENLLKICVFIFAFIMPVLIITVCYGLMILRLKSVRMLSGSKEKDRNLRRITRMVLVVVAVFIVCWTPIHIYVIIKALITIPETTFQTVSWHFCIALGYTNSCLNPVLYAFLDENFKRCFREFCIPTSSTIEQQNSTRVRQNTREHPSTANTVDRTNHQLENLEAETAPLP

endomorphin-1 (peptide): in test [1], the Ki was determined as 39.7 nM. In test [2], this substance gave an ERK-1/2 phosphorylation after 2.5 min in HEK293-µOR cells (western blot), EC50 of 5.8 nM and an inhibition of FSK (10 µM) induced cAMP accumulation in HEK293-µOR cells, EC50 of 4.17 nM.

For the origin of these results see publication PMC12198324.
